Results published in patent EP3196312B1, “EFFICIENT CONVERSION OF METHYLGLYOXAL INTO HYDROXYACETONE USING NOVEL ENZYMES AND APPLI CATIONS THEREOF” (Metabolic Explorer, priority 2016, dated 2017).

Assays:
[1] = tested on: CC(=O)C=O; assay: Methylglyoxal reductase kinetic parameters of purified enzyme (NAD(P)H consumption at 340 nm); assay type: biochemical, Escherichia coli; conditions: other: substrate methylglyoxal 0.1-40 mM, cofactor NADH, 100mM MES-KOH (pH6.5) 0.1mM FeSO4 30mM ammonium sulfate, 30°C, pH 6.5
Procedure: For strain 14, the purification protocol was previously described in patent application WO 2015/173247. Table 3: Protein storage buffer
(§1) Methylglyoxal reductase activity (MGR) was determined by measuring the consumption of NAD(P)H at 340 nm on a spectrophotometer at 30°C (λ340 = 6290 M^-1 cm^-1). The reaction mixture (1mL) containing assay buffer and purified enzyme was incubated for 5 min at 30°C. Then, 0.1-40 mM methylglyoxal was added to start the reaction. One unit of enzyme activity was defined as the amount of enzyme catalyzing the decrease of 1µmol of NAD(P)H per min. Kinetic parameters were determined with Sigmaplot.

[2] = tested on: CC(=O)C=O; assay: as above; assay type: biochemical, Escherichia coli; conditions: other: substrate methylglyoxal 0.1-40 mM, cofactor NADPH, pH 7.5
Procedure: Except for the strain 18, the proteins were purified from the crude cell-extract by affinity on a Profinity column (BIORAD, Bio-Scale Mini Profinity exact cartridge 5 ml) according to the protocol recommended by the manufacturer. The crude extract was loaded on a 5 ml Profinity exact cartridge equilibrated with 100 mM potassium phosphate pH 7.6. The column was washed with 10 column volumes of the same buffer and incubated 30min with 100 mM potassium phosphate pH 7.6, 100 mM fluoride at room temperature. The protein was eluted from the column with 2 column volumes of 100 mM potassium phosphate pH 7.6. The tag remained tightly bound to the resin and the purified protein was released. The fractions containing the protein were pooled, concentrated and loaded on a gel filtration column (Superdex 200 10/300 GL column, GE Healthcare) equilibrated with different storage buffers (Table 3). Protein concentration was measured using the Bradford protein assay.
as §1

Q: For “Escherichia coli GldA (glycerol dehydrogenase) variant GldA*(A160T), SEQ ID NO: 17 (Escherichia coli K-12; A160T)”, which Km [1] is on record?
A: Its Km is 3.17 mM.

Q: What about the kcat/Km [1] of the same substance?
A: The kcat/Km was 7800 M⁻¹ s⁻¹.

Q: With “Escherichia coli YdjG variant YdjG*(D232E), SEQ ID NO: 101 (Escherichia coli K-12; D232E)” as the substance, how does the Km ([2]; 20mM Hepes (pH7.5), 30°C) read?
A: Its Km is 3.25 mM.

Q: What about the kcat/Km ([2]; 20mM Hepes (pH7.5), 30°C) of the same substance?
A: The kcat/Km was 10 M⁻¹ s⁻¹.

Q: How did the Km ([2]; 20mM Hepes (pH7.5) 0.1mM ZnSO4, 30°C) turn out when “Escherichia coli YqhD variant YqhD*(G149E), SEQ ID NO: 9 (Escherichia coli K-12; G149E)” was run?
A: The Km was 2.92 mM.
